Experimental data: paper PMC11282193, “Mst1-mediated phosphorylation of FoxO1 and C/EBP-β stimulates cell-protective mechanisms in cardiomyocytes”
One block for each molecule: values may come before it.

Assays:
C/EBP-β = C/EBP-β (UniProt P21272); assay: co-immunoprecipitation from cardiomyocytes; conditions: reference: FoxO1(S209A); sites S215,S218,T228,S232,S243
FoxO1 = FoxO1 (UniProt G3V7R4); assay: C/EBP-β IP, FoxO1 immunoblot; conditions: reference: C/EBP-β-WT; sites T299
FoxO1-WT = FoxO1-WT (mouse, UniProt Q9R1E0 1-652); assay: pull-down; without Mst1; EMSA: 20 mM Tris-HCl pH 8.0, 40 mM KCl, 5% glycerol, 0.4 mM DTT, 0.2 mM EDTA, 2 mM MgCl2, 1 mg/ml BSA, 20 ng poly(dI-dC), on ice 15 min, 50 ng protein; pull-down (1x buffer): 10 mM HEPES pH 8, 50 mM KCl, 2.5 mM MgCl2, 1 mM EDTA, 1 mM DTT, 0.1% IGEPAL, 4 C 2 h; conditions: protein: recombinant; tags: GST removed by PreScission (general method); label: 5' biotin on sense strand; blunt
Chain of FoxO1-WT (Q9R1E0 whole entry): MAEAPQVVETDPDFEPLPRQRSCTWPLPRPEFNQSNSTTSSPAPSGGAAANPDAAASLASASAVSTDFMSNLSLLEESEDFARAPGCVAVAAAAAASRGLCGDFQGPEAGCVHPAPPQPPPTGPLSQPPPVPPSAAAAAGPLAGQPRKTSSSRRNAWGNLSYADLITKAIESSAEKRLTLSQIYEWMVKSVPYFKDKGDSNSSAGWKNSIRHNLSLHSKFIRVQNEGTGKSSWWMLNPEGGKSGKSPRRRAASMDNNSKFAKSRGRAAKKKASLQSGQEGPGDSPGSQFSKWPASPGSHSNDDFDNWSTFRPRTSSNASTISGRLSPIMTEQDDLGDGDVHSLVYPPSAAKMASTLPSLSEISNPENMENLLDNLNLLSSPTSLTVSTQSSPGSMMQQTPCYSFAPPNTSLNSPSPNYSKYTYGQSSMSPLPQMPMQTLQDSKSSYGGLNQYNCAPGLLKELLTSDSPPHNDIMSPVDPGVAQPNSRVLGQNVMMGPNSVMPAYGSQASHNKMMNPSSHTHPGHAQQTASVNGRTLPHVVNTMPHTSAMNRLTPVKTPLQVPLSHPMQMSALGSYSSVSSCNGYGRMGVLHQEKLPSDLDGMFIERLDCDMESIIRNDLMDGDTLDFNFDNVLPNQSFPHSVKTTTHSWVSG

- binding against the reference (C/EBP-β): lost
Molecule: FoxO1 (from UniProt Q9R1E0) FoxO1-PR (six sites to Ala)

- binding against the reference (FoxO1): weaker
Molecule: C/EBP-β (from UniProt P17676) C/EBP-β-PR (T299A)

B1: WT-3xDBE (Biotin-FHRE-wild type) (dsDNA)
DNA 1: CCTTGTTTACGGGTTGTTTACGGGTTGTTTACCC
DNA 2: GGGTAAACAACCCGTAAACAACCCGTAAACAAGG
- binding result (FoxO1-WT): binds

B2: Mt-3xDBE (Biotin-FHRE-mutant) (dsDNA)
DNA 1: ACTTACCCACGAGTTACCCACGAGTTACCCACCA
DNA 2: TGGTGGGTAACTCGTGGGTAACTCGTGGGTAAGT
- binding result (FoxO1-WT): no binding
